# Patent US20230233607A1
# Molecular target: CV1, an engineered high-affinity membrane receptor for CD47
# Assay: flow cytometry; HEK 293T cells with light-induced CV1 incubated with biotinylated CD47, detected by streptavidin-PE
substance,measurement,value
Biotinylated CD47 protein (from UniProt Q08722 19-135) (ligand),percent of engineered cells stained with CD47,> 80%
